Starred links: 1 amine or outer side, 2 acyl side, 3 side chain; linkers in the order of their positions; H or OH if unused. Residues, ends and D or L forms follow the SMILES beside them. Groups on a side chain read outwards from the residue. No end group written: not given here. *: point of attachment. γGlu = O=C(O)[C@H](CCC(=O)[*:2])N[*:1]; Palmitoyl = CCCCCCCCCCCCCCCC(=O)*
T1: Neuromedin U receptor 1 (UniProt Q9HB89 1-426, limits assumed)
T1 sequence (looked up): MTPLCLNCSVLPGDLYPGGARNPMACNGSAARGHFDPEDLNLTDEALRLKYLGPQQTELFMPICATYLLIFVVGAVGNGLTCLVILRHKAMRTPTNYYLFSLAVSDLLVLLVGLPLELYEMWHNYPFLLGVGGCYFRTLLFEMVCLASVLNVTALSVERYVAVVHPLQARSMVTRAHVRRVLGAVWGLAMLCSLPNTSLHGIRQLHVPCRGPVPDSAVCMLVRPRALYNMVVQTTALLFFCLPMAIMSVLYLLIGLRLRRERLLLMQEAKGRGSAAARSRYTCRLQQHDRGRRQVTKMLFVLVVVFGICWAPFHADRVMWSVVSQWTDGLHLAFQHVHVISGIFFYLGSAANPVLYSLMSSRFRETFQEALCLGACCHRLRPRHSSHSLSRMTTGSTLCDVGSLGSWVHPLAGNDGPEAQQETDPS

B1: SEQ ID NO 17 (NMU analog acylated at K4) (peptide)
peptide: FRVK([γGlu-Palmitoyl])EEFQSPFASQSRGYFLFRPRN-NH2
modifications: N-terminus assumed
SMILES: CCCCCCCCCCCCCCCC(=O)N[C@@H](CCC(=O)NCCCC[C@H](NC(=O)[C@@H](NC(=O)[C@H](CCCNC(=N)N)NC(=O)[C@@H](N)Cc1ccccc1)C(C)C)C(=O)N[C@@H](CCC(=O)O)C(=O)N[C@@H](CCC(=O)O)C(=O)N[C@@H](Cc1ccccc1)C(=O)N[C@@H](CCC(N)=O)C(=O)N[C@@H](CO)C(=O)N1CCC[C@H]1C(=O)N[C@@H](Cc1ccccc1)C(=O)N[C@@H](C)C(=O)N[C@@H](CO)C(=O)N[C@@H](CCC(N)=O)C(=O)N[C@@H](CO)C(=O)N[C@@H](CCCNC(=N)N)C(=O)NCC(=O)N[C@@H](Cc1ccc(O)cc1)C(=O)N[C@@H](Cc1ccccc1)C(=O)N[C@@H](CC(C)C)C(=O)N[C@@H](Cc1ccccc1)C(=O)N[C@@H](CCCNC(=N)N)C(=O)N1CCC[C@H]1C(=O)N[C@@H](CCCNC(=N)N)C(=O)N[C@@H](CC(N)=O)C(N)=O)C(=O)O
B2: SEQ ID NO 14 (NMU analog acylated at K6) (peptide)
peptide: FRVDEK([γGlu-Palmitoyl])FQSPFASQSRGYFLFRPRN-NH2
modifications: N-terminus assumed
SMILES: CCCCCCCCCCCCCCCC(=O)N[C@@H](CCC(=O)NCCCC[C@H](NC(=O)[C@H](CCC(=O)O)NC(=O)[C@H](CC(=O)O)NC(=O)[C@@H](NC(=O)[C@H](CCCNC(=N)N)NC(=O)[C@@H](N)Cc1ccccc1)C(C)C)C(=O)N[C@@H](Cc1ccccc1)C(=O)N[C@@H](CCC(N)=O)C(=O)N[C@@H](CO)C(=O)N1CCC[C@H]1C(=O)N[C@@H](Cc1ccccc1)C(=O)N[C@@H](C)C(=O)N[C@@H](CO)C(=O)N[C@@H](CCC(N)=O)C(=O)N[C@@H](CO)C(=O)N[C@@H](CCCNC(=N)N)C(=O)NCC(=O)N[C@@H](Cc1ccc(O)cc1)C(=O)N[C@@H](Cc1ccccc1)C(=O)N[C@@H](CC(C)C)C(=O)N[C@@H](Cc1ccccc1)C(=O)N[C@@H](CCCNC(=N)N)C(=O)N1CCC[C@H]1C(=O)N[C@@H](CCCNC(=N)N)C(=O)N[C@@H](CC(N)=O)C(N)=O)C(=O)O
B3: SEQ ID NO 8 (NMU analog acylated at K13) (peptide)
peptide: FRVDEEFQSPFAK([γGlu-Palmitoyl])QSRGYFLFRPRN-NH2
modifications: N-terminus assumed
SMILES: CCCCCCCCCCCCCCCC(=O)N[C@@H](CCC(=O)NCCCC[C@H](NC(=O)[C@H](C)NC(=O)[C@H](Cc1ccccc1)NC(=O)[C@@H]1CCCN1C(=O)[C@H](CO)NC(=O)[C@H](CCC(N)=O)NC(=O)[C@H](Cc1ccccc1)NC(=O)[C@H](CCC(=O)O)NC(=O)[C@H](CCC(=O)O)NC(=O)[C@H](CC(=O)O)NC(=O)[C@@H](NC(=O)[C@H](CCCNC(=N)N)NC(=O)[C@@H](N)Cc1ccccc1)C(C)C)C(=O)N[C@@H](CCC(N)=O)C(=O)N[C@@H](CO)C(=O)N[C@@H](CCCNC(=N)N)C(=O)NCC(=O)N[C@@H](Cc1ccc(O)cc1)C(=O)N[C@@H](Cc1ccccc1)C(=O)N[C@@H](CC(C)C)C(=O)N[C@@H](Cc1ccccc1)C(=O)N[C@@H](CCCNC(=N)N)C(=O)N1CCC[C@H]1C(=O)N[C@@H](CCCNC(=N)N)C(=O)N[C@@H](CC(N)=O)C(N)=O)C(=O)O
B4: SEQ ID NO 11 (NMU analog acylated at K9) (peptide)
peptide: FRVDEEFQK([γGlu-Palmitoyl])PFASQSRGYFLFRPRN-NH2
modifications: N-terminus assumed
SMILES: CCCCCCCCCCCCCCCC(=O)N[C@@H](CCC(=O)NCCCC[C@H](NC(=O)[C@H](CCC(N)=O)NC(=O)[C@H](Cc1ccccc1)NC(=O)[C@H](CCC(=O)O)NC(=O)[C@H](CCC(=O)O)NC(=O)[C@H](CC(=O)O)NC(=O)[C@@H](NC(=O)[C@H](CCCNC(=N)N)NC(=O)[C@@H](N)Cc1ccccc1)C(C)C)C(=O)N1CCC[C@H]1C(=O)N[C@@H](Cc1ccccc1)C(=O)N[C@@H](C)C(=O)N[C@@H](CO)C(=O)N[C@@H](CCC(N)=O)C(=O)N[C@@H](CO)C(=O)N[C@@H](CCCNC(=N)N)C(=O)NCC(=O)N[C@@H](Cc1ccc(O)cc1)C(=O)N[C@@H](Cc1ccccc1)C(=O)N[C@@H](CC(C)C)C(=O)N[C@@H](Cc1ccccc1)C(=O)N[C@@H](CCCNC(=N)N)C(=O)N1CCC[C@H]1C(=O)N[C@@H](CCCNC(=N)N)C(=O)N[C@@H](CC(N)=O)C(N)=O)C(=O)O
B5: SEQ ID NO 5 (NMU analog acylated at K15) (peptide)
peptide: FRVDEEFQSPFASQK([γGlu-Palmitoyl])RGYFLFRPRN-NH2
modifications: N-terminus assumed
SMILES: CCCCCCCCCCCCCCCC(=O)N[C@@H](CCC(=O)NCCCC[C@H](NC(=O)[C@H](CCC(N)=O)NC(=O)[C@H](CO)NC(=O)[C@H](C)NC(=O)[C@H](Cc1ccccc1)NC(=O)[C@@H]1CCCN1C(=O)[C@H](CO)NC(=O)[C@H](CCC(N)=O)NC(=O)[C@H](Cc1ccccc1)NC(=O)[C@H](CCC(=O)O)NC(=O)[C@H](CCC(=O)O)NC(=O)[C@H](CC(=O)O)NC(=O)[C@@H](NC(=O)[C@H](CCCNC(=N)N)NC(=O)[C@@H](N)Cc1ccccc1)C(C)C)C(=O)N[C@@H](CCCNC(=N)N)C(=O)NCC(=O)N[C@@H](Cc1ccc(O)cc1)C(=O)N[C@@H](Cc1ccccc1)C(=O)N[C@@H](CC(C)C)C(=O)N[C@@H](Cc1ccccc1)C(=O)N[C@@H](CCCNC(=N)N)C(=O)N1CCC[C@H]1C(=O)N[C@@H](CCCNC(=N)N)C(=O)N[C@@H](CC(N)=O)C(N)=O)C(=O)O

What follows are molecules tested against T1, Neuromedin U receptor 1 (assay: cell-based or functional assay). Conditions: not given.
For FRVDEEFQSPFASQSRGYFLFRPRN-NH2 [Human neuromedin U], the “NMUR1 cAMP EC50” value was 2.57 nM.
B1 was tested, and the “NMUR1 cAMP EC50” value was 45.5 nM.
In the case of B2, the “NMUR1 cAMP EC50” value is reported as 51.5 nM.
B3 was tested, and the “NMUR1 cAMP EC50” value was 114 nM.
With B4 the “NMUR1 cAMP EC50” value was 74 nM.
For B5, the “NMUR1 cAMP EC50” value was 195 nM.

Each molecule was assayed against T2, Neuromedin U receptor 2 (NMUR2) (Homo sapiens, UniProt Q9GZQ4) (assay: Functional assay (IP3 SPA-ysi assay) in HEK293 cells transfected with NMUR2). Conditions: HEK293 cells transiently transfected with NMUR2; head says cAMP, method describes IP3 SPA readout.
T2 construct: expressed in transfected cells; host or cells: HEK293 cells, transient calcium phosphate transfection; the empty-vector control is pcDNA3
T2 sequence (Q9GZQ4 whole entry): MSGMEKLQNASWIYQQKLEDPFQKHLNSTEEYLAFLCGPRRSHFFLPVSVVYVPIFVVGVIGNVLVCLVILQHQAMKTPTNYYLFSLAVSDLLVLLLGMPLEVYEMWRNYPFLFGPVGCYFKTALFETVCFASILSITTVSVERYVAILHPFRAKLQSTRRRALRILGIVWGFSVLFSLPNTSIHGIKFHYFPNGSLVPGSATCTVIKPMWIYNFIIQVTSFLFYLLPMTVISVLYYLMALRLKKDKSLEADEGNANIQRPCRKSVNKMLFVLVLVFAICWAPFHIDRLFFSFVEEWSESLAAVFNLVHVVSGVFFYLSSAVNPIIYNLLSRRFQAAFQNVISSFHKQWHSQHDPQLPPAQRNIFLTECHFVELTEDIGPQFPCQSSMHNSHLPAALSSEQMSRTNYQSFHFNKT
Assay type: cell-based
Method: All compounds were dissolved in dimethyl sulfoxide (DMSO), and then water was added (total DMSO conc. was 80%). The stock concentration was 1 mM for all the compounds. Stocks were alliquoted and frozen -20°C.
The day before each assay a new standard row was prepared by dilution of the stock solution in assay buffer (1 mM acetic acid + 0.1% bovine serum albumin (BSA)). The following concentrations were prepared (depending on the ligand potency): 10^-5, 10^-6, 10^-7, 10^-7.5, 10^-8, 10^-8.5, 10^-9, 10^-10, 10^-11, 10^-12 M.
Cell cultures: The HEK293 cells are grown in (DMEM31966 glutamax supplemented with 10% FBS (fetal bovine serum) and 1% penicillin G and streptomycin) and incubated at 37°C with 10% CO2 in a humidified atmosphere. The cells were split as follows. HEK293 cells approximately 80% confluent was used. The cells were removed from the bottom of the bottle by removing the media (DMEM31966 glutamax supplemented with 10% FBS and 1% penicillin G and streptomycin), rinsed with 5 mL phosphate buffered saline (PBS) and shaken gently. The PBS was removed and cells were released from the bottom with trypsin (1-2 mL) and incubated for 2-3 min. The flasks were then turned gently to ensure complete release of the cells from the bottom. Then media was added to the cells, (5-8 mL was used to rinse the cells of the bottom, this process was repeated approximately 4 times using the same media). Cell suspension was then transferred to a new bottle (approximately 4 × 10^6 cells per 175 cm^2 flask) and 20 mL media was added. Cells were incubated at 37°C with 10% CO2 in a humidified atmosphere.
Transfection of cells: HEK293 cells were seeded out at the density of 8 × 10^6 cells per 175 cm^2 flask 1 day prior to the transfection. Before transfection of cells, the culture medium was aspirated and half of the standard volume was added. 40 µg receptor-containing plasmid (Neuromedin U receptor 1 (NMUR1) or Neuromedin U receptor 2 (NMUR2)) or "empty" vector plasmid (pcDNA3), as a negative control, was mixed with 60 µL […] CaCl2 and Tris-EDTA (TE) buffer (10 mM tris(hydroxymethyl)aminomethane hydrochloride (Tris HCl), 1 mM ethylenedinitrilotetraacetic acid (EDTA), pH 7.5) to a total volume of 480 µL. The mixture was added drop-wise to another tube containing 480 µL 2 × HEPES buffered saline (HBS buffer) (280 mM NaCl, 50 mM 4-(2-Hydroxyethyl)piperazine-1-ethanesulfonic acid (HEPES), 1.5 mM NaHPO4, pH 7.2) and left for 45 min at room temperature for DNA precipitation. Afterwards, the precipitate was added carefully to the cells and cells were incubated for 5 hours at normal culture conditions. The transfection was stopped by change of the DNA-containing medium with 20 mL of fresh cell culture medium.
Seeding of the cells in 96 well plates: One day after transfection, cells were harvested using trypsin as described above. The cells were seeded in a poly-D-lysine coated clear 96 well plate. 100 µL cell suspension 350.000 cells/mL was added. 3H-myo-inositol (5µL/mL) was added to each well yielding a concentration of 35000 cells/well. The cells were incubated overnight before assay procedure the following day.
IP3 SPA-ysi assay: The media was removed and the plates were washed with 200 µL of Hank's balanced salt solution (HBSS) (Gibco, Life Technologies). 100 µL of HBSS/10 mM LiCl was added and the plates were incubated 15 min at 37°C. 5 µL ligand was added to each well and the plate was incubated at 37°C for 70-90 min (incubation time was approximately 1 h and 16 min for all plates). The plates were placed on ice and 50 µL formic acid (10 mM) was added to each well. The plates was left on ice for at least 30 min. 20 µL was then transferred to a white 96 well plate and 80 µL yttrium silicate (YSi) SPA-beads RPNQ0010 (Perkin Elmer) solution (0.0125 g/mL) is added to each well. The plates were sealed and shaken on high speed for 30 min, then centrifuged for 5 min at 1500 rpm and counted with 8 hours delay in the top counter. […]
Molecule `CCCCCCCCCCCCCCCC(=O)N[C@@H](CCC(=O)NCCCC[C@H](NC(=O)[C@H](CCC(N)=O)NC(=O)[C@H](Cc1ccccc1)NC(=O)[C@H](CCC(=O)O)NC(=O)[C@H](CCC(=O)O)NC(=O)[C@H](CC(=O)O)NC(=O)[C@@H](NC(=O)[C@H](CCCNC(=N)N)NC(=O)[C@@H](N)Cc1ccccc1)C(C)C)C(=O)N1CCC[C@H]1C(=O)N[C@@H](Cc1ccccc1)C(=O)N[C@@H](C)C(=O)N[C@@H](CO)C(=O)N[C@@H](CCC(N)=O)C(=O)N[C@@H](CO)C(=O)N[C@@H](CCCNC(=N)N)C(=O)NCC(=O)N[C@@H](Cc1ccc(O)cc1)C(=O)N[C@@H](Cc1ccccc1)C(=O)N[C@@H](CC(C)C)C(=O)N[C@@H](Cc1ccccc1)C(=O)N[C@@H](CCCNC(=N)N)C(=O)N1CCC[C@H]1C(=O)N[C@@H](CCCNC(=N)N)C(=O)N[C@@H](CC(N)=O)C(N)=O)C(=O)O` [SEQ ID NO 11] (H-FRVDEEFQK([γGlu-Palmitoyl])PFASQSRGYFLFRPRN-NH2) has an EC50 of 94.3 nM.
In the case of “H-FRVDEEFQSPFASQSRGYFLFRPRN-NH2 [Human NMU, reference compound]”, the EC50 is reported as 4.26 nM.

Source: EP2842965A1, “Neuromedin U analogs comprising serum albumin binding amino acid residue” (Gubra ApS, priority 2013, dated 2015)
